From patent US20130209454A1 (CALIFORNIA INSTITUTE OF TECHNOLOGY, published 2013)

Columns and labels:
Test in all cases: cell-based or functional assay
[1] = biological target: HIV-1 strain 703357.C02 envelope (gp120) (HIV-1)
[2] = biological target: HIV-1 strain QH0692.42 envelope (gp120) (HIV-1)
[3] = biological target: HIV-1 strain ZM214M.PL15 envelope (gp120) (HIV-1)
[4] = biological target: HIV-1 strain ZM233M.PB6 envelope (gp120) (HIV-1)
[5] = biological target: HIV-1 strain ZM135M.PL10a envelope (gp120) (HIV-1)
[6] = biological target: HIV-1 strain SC422661.8 envelope (gp120) (HIV-1)
[7] = biological target: HIV-1 strain 231965.c01 envelope (gp120) (HIV-1)
[8] = biological target: HIV-1 strain Q23.17 envelope (gp120) (HIV-1)
[9] = biological target: HIV-1 strain Ce703010054_2A2 envelope (gp120) (HIV-1)
[10] = biological target: HIV-1 strain TRO.11 envelope (gp120) (HIV-1)
[11] = biological target: HIV-1 strain C3347.c11 envelope (gp120) (HIV-1)
[12] = biological target: HIV-1 strain WEAU_d15_410_787 envelope (gp120) (HIV-1)
[13] = biological target: HIV-1 strain WITO4160.33 envelope (gp120) (HIV-1)
[14] = biological target: HIV-1 strain CNE58 envelope (gp120) (HIV-1)
[15] = biological target: HIV-1 strain ZM53M.PB12 envelope (gp120) (HIV-1)
[16] = biological target: HIV-1 strain CAP210.2.00.E8 envelope (gp120) (HIV-1)
[17] = biological target: HIV-1 strain Du422.1 envelope (gp120) (HIV-1)
[18] = biological target: HIV-1 strain THRO4156.18 envelope (gp120) (HIV-1)
[19] = biological target: HIV-1 strain CNE17 envelope (gp120) (HIV-1)
[20] = biological target: HIV-1 strain 0330.v4.c3 envelope (gp120) (HIV-1)
[21] = biological target: HIV-1 strain REJO4541.67 envelope (gp120) (HIV-1)
[22] = biological target: HIV-1 strain HIV-16845-2.22 envelope (gp120) (HIV-1)
[23] = biological target: HIV-1 strain C1080.c03 envelope (gp120) (HIV-1)
[24] = biological target: HIV-1 strain 1006_11_C3_1601 envelope (gp120) (HIV-1)
[25] = biological target: HIV-1 strain ZM247v1(Rev-) envelope (gp120) (HIV-1)
[26] = biological target: HIV-1 strain 3718.v3.c11 envelope (gp120) (HIV-1)
[27] = biological target: HIV-1 strain X1193_c1 envelope (gp120) (HIV-1)
[28] = biological target: HIV-1 strain CNE20 envelope (gp120) (HIV-1)
[29] = biological target: HIV-1 strain 3301.v1.c24 envelope (gp120) (HIV-1)
[30] = biological target: HIV-1 strain 6540.v4.c1 envelope (gp120) (HIV-1)
[31] = biological target: HIV-1 strain 620345.c01 envelope (gp120) (HIV-1)
[32] = biological target: HIV-1 strain 3016.v5.c45 envelope (gp120) (HIV-1)
[33] = biological target: HIV-1 strain 6535.3 envelope (gp120) (HIV-1)
[34] = biological target: HIV-1 strain T278-50 envelope (gp120) (HIV-1)
[35] = biological target: HIV-1 strain Q259.d2.17 envelope (gp120) (HIV-1)
[36] = biological target: HIV-1 strain AC10.0.29 envelope (gp120) (HIV-1)
[37] = biological target: HIV-1 strain T251-18 envelope (gp120) (HIV-1)
[38] = biological target: HIV-1 strain Q769.d22 envelope (gp120) (HIV-1)
[39] = biological target: HIV-1 strain ZM109F.PB4 envelope (gp120) (HIV-1)
[40] = biological target: HIV-1 strain RHPA4259.7 envelope (gp120) (HIV-1)
[41] = biological target: HIV-1 strain Ce2010_F5 envelope (gp120) (HIV-1)

B1: NIH45-46 IgG (antibody, V domains shown)
VH: QVRLSQSGGQMKKPGESMRLSCRASGYEFLNCPINWIRLAPGRRPEWMGWLKPRGGAVNYARKFQGRVTMTRDVYSDTAFLELRSLTSDDTAVYFCTRGKYCTARDYYNWDFEHWGRGAPVTVSS
VL: EIVLTQSPATLSLSPGETAIISCRTSQSGSLAWYQQRPGQAPRLVIYSGSTRAAGIPDRFSGSRWGADYNLSISNLESGDFGVYYCQQYEFFGQGTKVQVDI
neutralization IC80 [1]: > 50 µg/mL | neutralization IC80 [2]: 1.71 µg/mL | neutralization IC80 [3]: 0.59 µg/mL | neutralization IC80 [4]: 14.2 µg/mL | neutralization IC80 [5]: 2.79 µg/mL | neutralization IC80 [6]: 0.13 µg/mL | neutralization IC80 [7]: 0.126 µg/mL | neutralization IC80 [8]: 0.5 µg/mL | neutralization IC80 [9]: 0.538 µg/mL | neutralization IC80 [10]: 7.49 µg/mL | neutralization IC80 [11]: 0.094 µg/mL | neutralization IC80 [12]: 0.015 µg/mL | neutralization IC80 [13]: 0.26 µg/mL | neutralization IC80 [14]: 2.08 µg/mL | neutralization IC80 [15]: 0.61 µg/mL | neutralization IC80 [16]: > 50 µg/mL | neutralization IC80 [17]: > 50 µg/mL | neutralization IC80 [18]: 8.22 µg/mL | neutralization IC80 [19]: 0.734 µg/mL | neutralization IC80 [20]: 0.3 µg/mL | neutralization IC80 [21]: 0.035 µg/mL | neutralization IC80 [22]: 22.6 µg/mL | neutralization IC80 [23]: 11.6 µg/mL | neutralization IC80 [24]: 0.196 µg/mL | neutralization IC80 [25]: 24.5 µg/mL | neutralization IC80 [26]: > 50 µg/mL | neutralization IC80 [27]: 0.064 µg/mL | neutralization IC80 [28]: > 50 µg/mL | neutralization IC80 [29]: 0.033 µg/mL | neutralization IC80 [30]: > 50 µg/mL | neutralization IC80 [31]: > 50 µg/mL | neutralization IC80 [32]: > 50 µg/mL | neutralization IC80 [33]: 0.54 µg/mL | neutralization IC80 [34]: > 50 µg/mL | neutralization IC80 [35]: 0.154 µg/mL | neutralization IC80 [36]: 1.93 µg/mL | neutralization IC80 [37]: 3.68 µg/mL | neutralization IC80 [38]: 0.033 µg/mL | neutralization IC80 [39]: 0.437 µg/mL | neutralization IC80 [40]: 0.047 µg/mL | neutralization IC80 [41]: 0.357 µg/mL
